Measurements from patent US20220267379A1 (ECOLE POLYTECHNIQUE FEDERALE DE LAUSANNE EPFL, published 2022).
Positions of bridges follow the written chain, without caps; N, C: chain ends. Non-standard residues stand in square brackets, D forms with d. Primed or numbered codes have the meaning given here. Chains are numbered I, II in the order given. No end group written: not given here. *: point of attachment. Palmitoyl = CCCCCCCCCCCCCCCC(=O)*; PEG2′ = PEG2 spacer unit

Assays:
[1] = target: T1, human serum albumin (HSA) (human, UniProt P02768 25-609); assay: fluorescence polarization
[2] = target: T1, human serum albumin (HSA); assay: fluorescence polarization, dilution series of human serum
Procedure: (b) Kd values of conjugates for HSA assessed by fluorescence polarization. A dilution serious of human serum was used. […] All data represent the mean of three measurements ±SD.
Thus, the dissociation constants (Kd) of the molecules for HSA were tested with a fluorescence polarization (FP) assay using the fluorescein moiety in the albumin tag. The fluorescence anisotropy of the molecules in a dilution series of human serum was measured and Kd values were calculated.

[3] = target: T2, human Kallikrein-related peptidase 7 (hKLK7) (human, UniProt P49862 30-253); assay: substrate-based activity assay in the presence of 25 µM HSA
T2 construct: Active protease used in substrate-based activity assays and immobilized for phage selection; also called stratum corneum chymotryptic enzyme (SCCE)
Procedure: (§1) (a) Kᵢ values of N- and C-terminal tag conjugates in comparison to unconjugated inhibitors measured by inhibition assays in the presence of HSA. […] All data represent the mean of three measurements ±SD.
(§2) Even though the actual concentration of albumin in human blood is at around 600 μM and thus much higher, a higher albumin concentration in the assay was not possible, as it interfered with the protease activity.

FXIIa (Factor XIIa) = target: T3, FXIIa (Factor XIIa) (human, UniProt P00748 373-615, limits assumed); assay: substrate-based activity assay, off-target selectivity
T3 sequence (looked up): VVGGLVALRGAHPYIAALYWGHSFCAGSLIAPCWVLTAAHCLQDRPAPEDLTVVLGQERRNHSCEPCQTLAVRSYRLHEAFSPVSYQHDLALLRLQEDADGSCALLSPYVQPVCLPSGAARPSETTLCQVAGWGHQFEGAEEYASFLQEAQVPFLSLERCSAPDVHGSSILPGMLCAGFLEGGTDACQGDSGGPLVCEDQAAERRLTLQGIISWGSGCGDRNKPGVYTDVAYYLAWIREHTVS

[4] = target: T4, human Kallikrein-related peptidase 5 (hKLK5) (human, UniProt Q9Y337 67-293, limits assumed); assay: substrate-based activity assay in the presence of 25 µM HSA
T4 construct: Active protease used in substrate-based activity assays and immobilized for phage selection; also called stratum corneum tryptic enzyme (SCTE)
Procedure: as §1, §2

[5] = target: T2, human Kallikrein-related peptidase 7 …; assay: substrate-based activity assay
[6] = target: T5, mouse serum albumin (MSA) (mouse, UniProt P07724 25-608); assay: fluorescence polarization, dilution series of mouse albumin in PBS
T5 construct: also called mouse albumin
T5 sequence (P07724 25-608 limits assumed): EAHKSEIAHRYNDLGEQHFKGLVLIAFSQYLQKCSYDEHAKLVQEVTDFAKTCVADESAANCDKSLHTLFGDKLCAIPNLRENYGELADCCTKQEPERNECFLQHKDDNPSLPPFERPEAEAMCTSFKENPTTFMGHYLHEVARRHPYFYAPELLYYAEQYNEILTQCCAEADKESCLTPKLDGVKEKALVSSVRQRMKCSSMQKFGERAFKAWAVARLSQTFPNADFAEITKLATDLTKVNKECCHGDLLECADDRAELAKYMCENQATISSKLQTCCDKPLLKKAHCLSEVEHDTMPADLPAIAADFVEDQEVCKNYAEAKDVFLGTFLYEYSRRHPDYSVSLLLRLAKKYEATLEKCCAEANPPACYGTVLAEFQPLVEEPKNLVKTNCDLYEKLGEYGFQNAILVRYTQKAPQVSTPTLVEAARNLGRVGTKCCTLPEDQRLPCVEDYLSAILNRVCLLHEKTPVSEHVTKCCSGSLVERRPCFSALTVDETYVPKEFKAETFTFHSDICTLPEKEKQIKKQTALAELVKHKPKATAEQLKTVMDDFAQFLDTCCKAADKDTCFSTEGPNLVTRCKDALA

T4 sequence (Q9Y337 67-293 limits assumed): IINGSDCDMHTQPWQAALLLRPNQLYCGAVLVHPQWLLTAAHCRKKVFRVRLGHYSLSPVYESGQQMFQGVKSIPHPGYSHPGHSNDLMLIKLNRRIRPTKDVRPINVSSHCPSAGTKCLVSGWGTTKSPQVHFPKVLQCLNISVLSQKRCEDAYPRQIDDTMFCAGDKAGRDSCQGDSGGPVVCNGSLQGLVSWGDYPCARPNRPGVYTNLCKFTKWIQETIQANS
T2 sequence (P49862 30-253 limits assumed): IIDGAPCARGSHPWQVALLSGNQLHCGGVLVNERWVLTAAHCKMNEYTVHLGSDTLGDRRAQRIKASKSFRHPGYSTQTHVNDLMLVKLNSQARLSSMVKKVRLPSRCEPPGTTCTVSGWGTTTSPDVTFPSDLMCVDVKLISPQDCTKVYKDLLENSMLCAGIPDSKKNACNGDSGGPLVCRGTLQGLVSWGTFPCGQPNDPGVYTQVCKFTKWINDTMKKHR

B1: albumin tag variant peptide 263 (peptide)
peptide: EYEKEYEK
modifications: pentanedioic acid appended to the N-terminus through a PEG2 unit; Lys 4 side chain acylated with palmitic acid; additional C-terminal Lys carries 5(6)-carboxyfluorescein on its side chain
B1 was tested, and the “factor recovered in HSA affinity compared to tag-F” value [1] was 2 fold.

B2: N-terminal albumin tag conjugate of KLK7 inhibitor 096 (peptide)
peptide 1: {5(6)‑carboxyfluorescein}-EYEK(Palmitoyl)EYE[PEG2′]
peptide 2: PCLYLARCS
modifications: linker II:2-II:8 via 1,3‑dibromoacetone; also: tag C-terminus joined through PEG2 to inhibitor N-terminus (one linear molecule)
notes: also called N-terminal conjugate (KLK7)
In the case of B2, the binding result [2] is reported as “binds”, the Ki [3] is reported as 106 nM and the “fold loss in activity compared to the cyclic peptide alone” value [3] is reported as 6.6 fold.

B3: albumin tag variant peptide 266 (peptide)
peptide: EYEKEYEK
modifications: benzoic acid coupled to the amine of a gamma-coupled glutamic acid at the N-terminus (through PEG2); Lys 4 side chain acylated with palmitic acid; additional C-terminal Lys carries 5(6)-carboxyfluorescein on its side chain
In the case of B3, the “further factor recovered in HSA affinity by the first aromatic ring” value [1] is reported as 2 fold.

B4: peptide 035 (lead KLK5 inhibitor) (peptide)
peptide: GCTRQYPC
modifications: linker 2-8 via 1,3‑dibromoacetone
notes: also called compound 035
For B4, the “fold weaker than the Ki value for KLK5” value (FXIIa (Factor XIIa)) was ~4300 fold.

B5: N-terminal albumin tag conjugate of KLK5 inhibitor 035 (peptide)
peptide 1: {5(6)‑carboxyfluorescein}-EYEK(Palmitoyl)EYE
peptide 2: GCTRQYPC
modifications: bridge II:2-II:8; not fully specified (C-terminus, bridges); also: chain 1 C-terminus joined via PEG2 to N-terminus of chain 2 (one linear molecule)
notes: also called N-terminal conjugate (KLK5)
In the case of B5, the binding result [2] is reported as “binds”, the Ki [4] is reported as 23 nM and the “fold loss in activity compared to the cyclic peptide alone” value [4] is reported as 10 fold.

B6: peptide 096 (lead KLK7 inhibitor) (peptide)
peptide: PCLYLARCS
modifications: linker 2-8 via 1,3‑dibromoacetone
With B6 the “fold better activity than peptide 114” value [5] was 2 fold.

B7: albumin tag variant peptide 282 (peptide)
peptide: EYEKEYEK
modifications: biphenyl-3-carboxylic acid cap at the N-terminus (based on peptide 266: on a gamma-coupled glutamic acid, through PEG2); Lys 4 side chain acylated with palmitic acid; additional C-terminal Lys carries 5(6)-carboxyfluorescein on its side chain
notes: also called tag variant 282
B7 was tested, and the “factor of improvement in HSA affinity over peptide 266” value [1] was 4 fold.

B8: KLK5 inhibitor 035-tag (C-terminal albumin tag conjugate of 035) (peptide)
peptide 1: GCTRQYPCGKG
peptide 2: EYEK(Palmitoyl)EYE
modifications: bridge I:2-I:8; not fully specified (some residues, N-terminus, bridges); also: chain 2 (albumin tag) attached via PEG2 to Lys10 side chain of chain 1 (branched)
For B8, the binding result [6] was “binds”, the “fold loss in affinity (Kd) for HSA on conjugation” value [2] was 2.1 fold and the “fold improvement in the Ki value compared to the cyclic peptide alone” value [4] was 1.8 fold.

B9: SSSKSSS-tag (peptide)
peptide: SSSK(Palmitoyl)SSS
modifications: also: fluorescein label, position not given here
notes: Tag variant with all Tyr and Glu replaced by Ser; also called tag composed of Ser residues
B9: binds [6].

B10: albumin tag variant peptide 284 (peptide)
peptide: EYEKEYEK
modifications: 2-naphthalenecarboxylic acid cap at the N-terminus (based on peptide 266: on a gamma-coupled glutamic acid, through PEG2); Lys 4 side chain acylated with palmitic acid; additional C-terminal Lys carries 5(6)-carboxyfluorescein on its side chain
notes: also called tag variant 284
B10 was tested, and the “factor of improvement in HSA affinity over peptide 266” value [1] was 4 fold.

B11: KLK7 inhibitor 096-tag (C-terminal albumin tag conjugate of 096) (peptide)
peptide 1: PCLYLARCSGKG
peptide 2: EYEK(Palmitoyl)EYE
modifications: bridge I:2-I:8; not fully specified (some residues, N-terminus, bridges); also: chain 2 (albumin tag) attached via PEG2 to Lys11 side chain of chain 1 (branched)
notes: Branched molecule
For B11, the “fold loss in affinity (Kd) for HSA on conjugation” value [2] was 2.9 fold.
